For the experiment, the target named is T1, melatonin ML1B receptor (Homo sapiens, UniProt P49286).
T1 construct: expressed in transfected cells; host or cells: Saccharomyces cerevisiae strains MMY9 and MMY11, plasmid pDT-PGK-ML1B
T1 sequence (P49286 1-362): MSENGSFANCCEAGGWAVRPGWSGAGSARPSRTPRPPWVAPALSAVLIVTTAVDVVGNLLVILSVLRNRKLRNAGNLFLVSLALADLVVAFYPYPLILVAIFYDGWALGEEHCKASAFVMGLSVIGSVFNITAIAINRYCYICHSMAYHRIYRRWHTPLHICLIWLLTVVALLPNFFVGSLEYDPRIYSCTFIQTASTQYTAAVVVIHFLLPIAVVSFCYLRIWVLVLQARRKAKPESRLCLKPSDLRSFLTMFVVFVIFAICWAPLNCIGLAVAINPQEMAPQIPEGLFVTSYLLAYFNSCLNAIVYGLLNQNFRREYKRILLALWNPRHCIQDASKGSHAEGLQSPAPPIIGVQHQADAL
As to the kind of experiment: Reverse halo assay for FUS1-HIS3 expression, MMY9 cells, ML1B. The class given is cell-based. Particulars: MMY9 cells with pRS314-GPA1 and ML1B receptor, 40 nmol melatonin. How it is done:
Assay for FUS1-HIS3 Expression. Reverse halo assays were carried out by growing MMY9 cells to early stationary phase (OD600≈4) in liquid SC-glucose (2%) medium lacking tryptophan and uracil. A uniform layer of cells (5×10^7) was plated to 22.5 cm by 22.5 cm bioassay dishes (Nunc) in 100 ml SC-glucose agar (1%) equilibrated to 50° C. This medium lacked tryptophan, uracil and histidine, and was supplemented with 10 mM 3-aminotriazole, and buffered to pH 7.0 with 0.1M sodium phosphate. Antibiotic discs were placed on the solidified agar, and a volume of agonist solution (1-5 μl) was applied to each disc. Plates were incubated at 30° C. for 3 days.
The four receptors were: the melatonin ML1B receptor, the serotonin 5HT1A receptor, the somatostatin SST2 receptor and the purinergic nucleotide receptor, P2Y2. […] Activation of the pheromone response pathway was monitored with two integrated reporter genes: […] allowing a growth readout in medium lacking histidine, and FUS1-lacZ allowing a β-galactosidase readout. […] Agonist-dependent activation of FUS1-HIS3 was determined by reverse halo assay in which agonists were applied to the filter discs in the arrangement shown in panel A, in quantities as follows: 3 nmol of somatostatin-14 (S-14); 40 nmol of melatonin (Mel); 3 nmol of α-factor; 100 nmol of UTP; 40 nmol of serotonin (5-HT). […]

B1: Gpa1p: endogenous yeast Gα subunit, product of the GPA1 gene (protein, UniProt P08539 2-472, looked up)
Guanine nucleotide-binding …: GCTVSTQTIGDESDPFLQNKRANDVIEQSLQLEKQRDKNEIKLLLLGAGESGKSTVLKQLKLLHQGGFSHQERLQYAQVIWADAIQSMKILIIQARKLGIQLDCDDPINNKDLFACKRILLKAKALDYINASVAGGSDFLNDYVLKYSERYETRRRVQSTGRAKAAFDEDGNISNVKSDTDRDAETVTQNEDADRNNSSRINLQDICKDLNQEGDDQMFVRKTSREIQGQNRRNLIHEDIAKAIKQLWNNDKGIKQCFARSNEFQLEGSAAYYFDNIEKFASPNYVCTDEDILKGRIKTTGITETEFNIGSSKFKVLDAGGQRSERKKWIHCFEGITAVLFVLAMSEYDQMLFEDERVNRMHESIMLFDTLLNSKWFKDTPFILFLNKIDLFEEKVKSMPIRKYFPDYQGRVGDAEAGLKYFEKIFLSLNKTNKPIYVKRTCATDTQTMKFVLSAVTDLIIQQNLKKIGII
For the molecule B1, the “agonist-dependent activation of FUS1-HIS3 (halo of cell growth)” value was “activated FUS1-HIS3 in response to melatonin”.

These data come from US6509447B1, “G protein chimeras and methods of screening compounds” (Glaxo Welcome Inc., priority 1997, dated 2003).
